This is an account of results in patent US20080015165A1, “NOVEL POLYPEPTIDE” (KYOWA HAKKO KOGYO CO., LTD., priority 1998, published 2008).

The nature of data set [1]: Enzyme activity for a poly-N-acetyllactosamine sugar chain, Namalwa cell extract, HPLC. In kind it is biochemical. The conditions noted are these: substrate S; for Production (%) P1 / Production (%) P2 / Production (%) P3: relative value, total of products P1, P2 and P3 by each enzyme = 100%. The text has this: Using a poly-N-acetyllactosamine sugar chain, it was examined that to which GlcNAc in the sugar chains, human Fuc-TIX and 5 types of human α1,3-fucosyltransferase (Fuc-TIII, Fuc-TIV, Fuc-TV, Fuc-TVI, and Fuc-TVII) that had been cloned so far transferred fucose.
Control plasmid (pAMo) and the human Fuc-TIX expression plasmid pAMo-FT9 were introduced into Namalwa cells according to the method shown in Example 1 (3), thereby obtaining stable transformants.
Namalwa cells expressing each of the other 5 types of human α1,3-fucosyltransferases (Fuc-TIII, Fuc-TIV, Fuc-TV, Fuc-TVI, and Fuc-TVII) were obtained according to the previous report (Glycoconjugate J., 13, 802-812, Biochem. Biophys. Res. Commun., 237, 131-137, 1997).
The resultant transformants (about 1×10^7) were collected in microtubes (1.5 ml, manufactured by Eppendolf), followed by centrifugation at 550×g for 7 minutes to collect the cells.
The collected cells were washed with 0.9 ml of PBS. The washed cells were suspended in 100 μl of a solution which consisted of 20 mM HEPES (pH 7.2) and 1% TrironX-100, then allowed to stand at 4° C. for 10 minutes. Subsequently the cells were disrupted using a ultrasonicator (Bioruptor; manufactured by COSMO BIO CO., LTD.)
After disruption of the cells, each supernatant was obtained by centrifugation at 550×g for 7 minutes and used as an enzyme sample. A poly-N-acetyllactosamine sugar chain (Galβ1-4GlcNAcβ1-3Galβ1-4GlcNAcβ1-3Galβ1-4GlcNAc) consisting of 6 sugars was fluorescently labeled with 2-aminobenzamide to make a sugar chain (Galβ1-4GlcNAcβ1-3Galβ1-4GlcNAcβ1-3Galβ1-4GlcNAc-2AB: abbreviated as S in FIGS. 13 and 15, and table 3), which was used as a substrate
Florescent labeling was performed using a Signal™ 2-AB glycan labeling kit (manufactured by Oxford GlycoScience). A poly-N-acetyllactosamine sugar chain (Galβ1-4GlcNAcβ1-3Galβ1-4GlcNAcβ1-3Galβ1-4GlcNAc) was prepared according to WO98/03524.
Samples were allowed to react in 20 μl of an assay solution [50 mM cacodylate (pH 6.8), 5 mM ATP, 10 mM L-fucose, 75 μM […] (manufactured by SIGMA), 25 mM MnCl2, 15 μM fluorescently labeled sugar chain substrate, 6 μl of the cell lysate above] at 37° C. for 2 hours, followed by treatment at 100° C. for 3 minutes to stop the reaction. Next 200 μl of water was added to the samples, and the supernatant was obtained by centrifugation at 10,000×g for 5 minutes. Using an aliquot of the supernatant (10 μl), products were analyzed by HPLC under the following conditions.
HPLC: • Column—TSK-gel ODS-80TsQA column (4.6×250 mm; TOSOH CORPORATION) • Eluate—0.02 M ammonium acetate (pH 4.0) containing 7% methanol • Elution temperature—50° C. • Flow rate—1.0 ml/min. • Detection—Fluorescence spectrum photometer FB-920 (manufactured by JASCO Corporation) (excitation wavelength: 330 nm, radiation wavelength: 420 nm)

The nature of data set [2]: In vitro α1,3-fucosyltransferase activity, COS-1 cell lysate, pyridylaminated substrate, HPLC. In kind it is biochemical. The conditions noted are these: activity of human Fuc-TVI for α2,3-sialylLNnT taken as 100; 25 μM substrate, 2 hours at 37° C.; normalized to transcript amount.
Description: Each α1,3-fucosyltransferase expression plasmid (15 μg) was introduced into 1×10^7 COS-1 cells.
This introduction was performed by electroporation method using a gene pulser (manufactured by Bio-Rad) according to the Bio-Rad's instructional manual attached thereto. At this time, 1 μg of a luciferase expression vector, which was constructed by inserting β-actin promoter into a Hind III site of a vector pSVOA/L [Experimental Medicine, 7, 96, (1989)] was co-introduced as an index of gene transfer efficiency.
After the gene introduction, COS-1 cells were dispensed into three dishes for cell culture with a diameter of 15 cm and then cultured for 48 hours.
The cells in the remaining two dishes were collected, suspended in a solution (20 mM HEPES (pH 7.4), 2% TrironX-100), then ultrasonicated for a short time period, thereby preparing cell lysate. The protein concentration of the cell lysate was measured using a micro BCA protein assay reagent kit (manufactured by PIERCE).
The enzymatic activities of luciferase and α1,3-fucosyltransferase were measured using the cell lysate. […]
Each of the substrates was allowed to react in assay solution with or without GDP-Fuc (sugar donator), then analyzed with HPLC. […]
The products were detected using a fluorescent spectrum photometer FP-920 (JASCO Corporation) at excitation wavelength of 320 nm and emission wavelength of 400 nm. […]

B1: Human Fuc-TVI: known human α1,3-fucosyltransferase, previously cloned, used for comparison (protein, UniProt P51993 1-359, looked up)
4-galactosyl-N-acetylglucosami …: MDPLGPAKPQWSWRCCLTTLLFQLLMAVCFFSYLRVSQDDPTVYPNGSRFPDSTGTPAHSIPLILLWTWPFNKPIALPRCSEMVPGTADCNITADRKVYPQADAVIVHHREVMYNPSAQLPRSPRRQGQRWIWFSMESPSHCWQLKAMDGYFNLTMSYRSDSDIFTPYGWLEPWSGQPAHPPLNLSAKTELVAWAVSNWGPNSARVRYYQSLQAHLKVDVYGRSHKPLPQGTMMETLSRYKFYLAFENSLHPDYITEKLWRNALEAWAVPVVLGPSRSNYERFLPPDAFIHVDDFQSPKDLARYLQELDKDHARYLSYFRWRETLRPRSFSWALAFCKACWKLQEESRYQTRGIAAWFT
For B1, in data set [1], the “Production (%) P1” value turned out to be 8.3%, the “Production (%) P2” value was found to be 88.7% and the “Production (%) P3” value was 3.0%.

B2: Fuc-TV: known human α1,3-fucosyltransferase, previously cloned, expressed in Namalwa cells (protein, UniProt Q11128 1-374, looked up)
4-galactosyl-N-acetylglucosami …: MDPLGPAKPQWLWRRCLAGLLFQLLVAVCFFSYLRVSRDDATGSPRPGLMAVEPVTGAPNGSRCQDSMATPAHPTLLILLWTWPFNTPVALPRCSEMVPGAADCNITADSSVYPQADAVIVHHWDIMYNPSANLPPPTRPQGQRWIWFSMESPSNCRHLEALDGYFNLTMSYRSDSDIFTPYGWLEPWSGQPAHPPLNLSAKTELVAWAVSNWKPDSARVRYYQSLQAHLKVDVYGRSHKPLPKGTMMETLSRYKFYLAFENSLHPDYITEKLWRNALEAWAVPVVLGPSRSNYERFLPPDAFIHVDDFQSPKDLARYLQELDKDHARYLSYFHWRETLRPRSFSWALAFCKACWKLQQESRYQTVRSIAAWFT
B2: in data set [1], the “Production (%) P1” value is 7.5%, the “Production (%) P2” value stood at 92.5% and the “Production (%) P3” value worked out at 0.0%.

B3: Human Fuc-TIII: known human α1,3-fucosyltransferase, previously cloned, used for comparison (protein, UniProt P21217 1-361, looked up)
3-galactosyl-N-acetylglucosami …: MDPLGAAKPQWPWRRCLAALLFQLLVAVCFFSYLRVSRDDATGSPRAPSGSSRQDTTPTRPTLLILLRTWPFHIPVALSRCSEMVPGTADCHITADRKVYPQADMVIVHHWDIMSNPKSRLPPSPRPQGQRWIWFNLEPPPNCQHLEALDRYFNLTMSYRSDSDIFTPYGWLEPWSGQPAHPPLNLSAKTELVAWAVSNWKPDSARVRYYQSLQAHLKVDVYGRSHKPLPKGTMMETLSRYKFYLAFENSLHPDYITEKLWRNALEAWAVPVVLGPSRSNYERFLPPDAFIHVDDFQSPKDLARYLQELDKDHARYLSYFRWRETLRPRSFSWALDFCKACWKLQQESRYQTVRSIAAWFT
With B3, in data set [1], the “Production (%) P1” value turned out to be 2.0%, the “Production (%) P2” value is 98.0% and the “Production (%) P3” value is given as 0.0%.

B4: Mouse Fuc-TIV: known mouse α1,3-fucosyltransferase expressed from pCDM8-mFT4 for comparison (protein, UniProt Q11127 1-433, looked up)
Alpha-(1,3)-fucosyltransferase …: MAPARQELQHESRCRPSRTVDAWRAAVATRGRHMETPGYRRRTRCGGWGLPRSVSSLAAVGLLCTALTTFICWGQLPPLPWASPAPQRLVGVLLWWEPFRGRGGYPKSPPDCSLRFNISGCRLLTDRAAYGEAQAVLFHHRDLVKELHDWPPPWGARERTDKALVLRVFDDQEGAVTLTGKALETVGSRPPGQRWVWMNFESPSHTPGLRGLAKDLFNWTLSYRTDSDVFVPYGFLYSRSDPTEQPSGLGPQLARKRGLVAWVVSNWNEHQARVRYYHQLSRHVSVDVFGRTGPGRPVPAIGLLHTVARYKFYLAFENSRHVDYITEKLWRNAFLAGAVPVVLGPDRANYERFVPRGAFIHVDDFPNAASLAAYLLFLDRNVAVYRRYFRWRRSFAVHITSFWDEQWCRTCQAVQTSGDQPKSIHNLADWFQR
Regarding B4, the “Relative activity of α1,3-fucosyltransferases for substrate LNT” value in data set [2] is 0.

B5: Fuc-TVII: known human α1,3-fucosyltransferase, previously cloned, expressed in Namalwa cells (protein, UniProt Q11130 1-342, looked up)
Alpha-(1,3)-fucosyltransferase …: MNNAGHGPTRRLRGLGVLAGVALLAALWLLWLLGSAPRGTPAPQPTITILVWHWPFTDQPPELPSDTCTRYGIARCHLSANRSLLASADAVVFHHRELQTRRSHLPLAQRPRGQPWVWASMESPSHTHGLSHLRGIFNWVLSYRRDSDIFVPYGRLEPHWGPSPPLPAKSRVAAWVVSNFQERQLRARLYRQLAPHLRVDVFGRANGRPLCASCLVPTVAQYRFYLSFENSQHRDYITEKFWRNALVAGTVPVVLGPPRATYEAFVPADAFVHVDDFGSARELAAFLTGMNESRYQRFFAWRDRLRVRLFTDWRERFCAICDRYPHLPRSQVYEDLEGWFQA
For the molecule B5, the major product result in data set [1] (extract of Namalwa cells expressing the enzyme) is on record as “no product”. For the same molecule, in data set [1], the “Production (%) P1” value was determined as 0.0%, the “Production (%) P2” value came to 0.0% and the “Production (%) P3” value is on record as 0.0%.
